B1: Brefeldin A-inhibited guanine nucleotide-exchange protein 2 (Homo sapiens), Q9Y6D5 (parent)
chain: MQESQTKSMFVSRALEKILADKEVKRPQHSQLRRACQVALDEIKAEIEKQRLGTAAPPKANFIEADKYFLPFELACQSKSPRVVSTSLDCLQKLIAYGHITGNAPDSGAPGKRLIDRIVETICSCFQGPQTDEGVQLQIIKALLTAVTSPHIEIHEGTILQTVRTCYNIYLASKNLINQTTAKATLTQMLNVIFTRMENQVLQEARELEKPIQSKPQSPVIQAAAVSPKFVRLKHSQAQSKPTTPEKTDLTNGEHARSDSGKVSTENGDAPRERGSSLSGTDDGAQEVVKDILEDVVTSAIKEAAEKHGLTEPERVLGELECQECAIPPGVDENSQTNGIADDRQSLSSADNLESDAQGHQVAARFSHVLQKDAFLVFRSLCKLSMKPLGEGPPDPKSHELRSKVVSLQLLLSVLQNAGPVFRTHEMFINAIKQYLCVALSKNGVSSVPDVFELSLAIFLTLLSNFKMHLKMQIEVFFKEIFLNILETSTSSFEHRWMVIQTLTRICADAQCVVDIYVNYDCDLNAANIFERLVNDLSKIAQGRSGHELGMTPLQELSLRKKGLECLVSILKCMVEWSKDLYVNPNHQTSLGQERLTDQEIGDGKGLDMARRCSVTSMESTVSSGTQTTVQDDPEQFEVIKQQKEIIEHGIELFNKKPKRGIQFLQEQGMLGTSVEDIAQFLHQEERLDSTQVGDFLGDSARFNKEVMYAYVDQLDFCEKEFVSALRTFLEGFRLPGEAQKIDRLMEKFAARYIECNQGQTLFASADTAYVLAYSIIMLTTDLHSPQVKNKMTKEQYIKMNRGINDSKDLPEEYLSSIYEEIEGKKIAMKETKELTIATKSTKQNVASEKQRRLLYNLEMEQMAKTAKALMEAVSHAKAPFTSATHLDHVRPMFKLVWTPLLAAYSIGLQNCDDTEVASLCLEGIRCAIRIACIFGMQLERDAYVQALARFSLLTASSSITEMKQKNIDTIKTLITVAHTDGNYLGNSWHEILKCISQLELAQLIGTGVKTRYLSGSGREREGSLKGHTLAGEEFMGLGLGNLVSGGVDKRQMASFQESVGETSSQSVVVAVDRIFTGSTRLDGNAIVDFVRWLCAVSMDELASPHHPRMFSLQKIVEISYYNMNRIRLQWSRIWHVIGDHFNKVGCNPNEDVAIFAVDSLRQLSMKFLEKGELANFRFQKDFLRPFEHIMKKNRSPTIRDMAIRCIAQMVNSQAANIRSGWKNIFAVFHQAASDHDGNIVELAFQTTCHIVTTIFQHHFPAAIDSFQDAVKCLSEFACNAAFPDTSMEAIRLIRFCGKYVSERPRVLQEYTSDDMNVAPGDRVWVRGWFPILFELSCIINRCKLDVRTRGLTVMFEIMKSYGHTFEKHWWQDLFRIVFRIFDNMKLPEQLSEKSEWMTTTCNHALYAICDVFTQFYEALNEVLLSDVFAQLQWCVKQDNEQLARSGTNCLENLVISNGEKFSPEVWDETCNCMLDIFKTTIPHVLLTWRPVGMEEDSSEKHLDVDLDRQSLSSIDKNPSERGQSQLSNPTDDSWKGRPYANQKLFASLLIKCVVQLELIQTIDNIVFYPATSKKEDAEHMVAAQQDTLDADIHIETEDQGMYKYMSSQHLFKLLDCLQESHSFSKAFNSNYEQRTVLWRAGFKGKSKPNLLKQETSSLACCLRILFRMYVDENRRDSWEEIQQRLLTVCSEALAYFITVNSESHREAWTSLLLLLLTKTLKINDEKFKAHASMYYPYLCEIMQFDLIPELRAVLRKFFLRIGVVYKIWIPEEPSQVPAALSPVW
partner: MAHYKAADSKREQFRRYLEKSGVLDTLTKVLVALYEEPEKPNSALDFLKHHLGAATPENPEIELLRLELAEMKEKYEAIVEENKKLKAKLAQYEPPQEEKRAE

Variants of: B1
Conditions: with mycbp_human MYCBP

| Variant | effect of a mutation on the interaction |
| --- | --- |
| I292P | decreasing interaction |

Source: IntAct's records for PubMed 16866877
